# Test results: the domain aggregation screens of Martell et al. (2025)
# Experiment: soluble fraction after stress (log2 fold change); higher = more stays soluble; pooled small domains, quantitative proteomics
# Settings: stress: pH 4
# In short: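 Small protein domains from pooled custom libraries were exposed to pH 4, then quantified with high-throughput quantitative proteomics. The fold change in how much of each domain remains soluble is read as aggregation propensity. It is given as log2, with higher values meaning more stayed soluble.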
row,Sequence,soluble fraction (log2)
1,HMVELGMSQNEFIQKFGKPFNKEMAYTYDKHKRETLFYKEDLYRGSWFIVTTAFTFVDSKLVSQEIVREER,-0.349
2,HMVENMDEFIGRVRRLVSDRLDLLKEASDDEIRETISQVVLELSREQFLTLNEKKTVLEGVFNSMR,-1.38
3,HMVERLVVSPGAGVFAPNKAIANGTRISVGDVLGMVGEQEVRSLFDGVLQSFISVDGERLTAHQPVAWLRT,-0.111
4,HMVEVPKVAGMSTAQGVSELEQKGFVVNRTESYDDTVPKGNIISQTPEGGTKVPSGSAVTIKISQGAE,-0.0558
5,HMVEVPNVIGMTKPELTQQFVNLKLDGSGEGDVVVQQSPSEGSKVKEGSTVRVYFG,0.137
6,HMVEVPNVSNLTLEQAENKLIQQGLQVKLEGQGEKVVAQIPQPGAVVNKKSTVILF,0.0373
7,HMVFLPDEIFRLKVIKAGEGPEQGVGYLDDGTMVVIEGARDRIGDELEVRVTSTLQTNAGKMIFTKFE,-2.12
8,HMVGEPEPIRYSRFLDEMKSGKLDSVVIQGDTILGVRKDKSQFKTVNPETDYSALIGALDKAGVGIEGRA,0.149
9,HMVGEYTVKKGDTLWKIAGQTLGSPLRYAEIYELNKDVIEEAALGRGKKNSSNGHWIFQGTVLKIPA,-0.255
10,HMVGIAEAMKHIADEDYGDLSAIFKQIFSDTDGGRNFSDAIRTQMRSTDSSGLRKVLSTLIMSIEE,-0.854
11,HMVGNEEALRAIVESIIAQNTTEVASFREGKEGLIGWFLGQVMRQTGGKADPKLARQILLELLKQ,-0.492
12,HMVGNYYDILGVPETATQDAIKKAFRSLAQQHHPDKNPDDPGAEAMFKKVSEAYQVLSDPDKRQTYDASL,-0.0611
13,HMVIDFYDPQTKVIHEIKKSSAKEEAHVWQVKYYIYLFEKEEIMGVKGVLEYPLLREIVSVNF,-0.0844
14,HMVINQRKLNLLSIYSSGSEKRAIILFPTGQTKFVKVGDTLDGGRVAAIGTSEIRYLKGGNNLVLRIPG,0.173
15,HMVINTRHTGFVVDDLERFINFYLGLGLKLISRKVESGEYIDKLVGLKGTKLEWAKLSLPDNSMIEILKYH,-0.454
16,HMVIREVNDNPVSAEELRLGDRVKVLSLGQNGEIVTLPDEKGELTVQVGILKAKVNLDDIMLI,0.0234
17,HMVISAKRMQDRRDSILDAAREAFARAGFEGTSIADIARRAGVSDGLVYRYFASKRDLLNAVLTA,0.216
18,HMVIVGGDVIVHYVDTEGKKISDDVVKSGNVGEDYSTDQKTILGYRFKEVQGNTSGKFTDKTQVVTYIYT,0.179
19,HMVKEVKVPDVEGLTTEEAIKELKKYGLAYTTKSEENTDIEEGKVIRTEPKKGSTKVKGSTVTIIESSG,0.253
20,HMVKFGERVKQLRLSAGMTQEQLAERIWVTKAAISNYELSERNPSPETIIKIAGVFGVTTDYLLGLED,-0.434
21,HMVKIVWSKEGPYVGTRVRRYFSQGPVDGTVVMYAKPQKGDDVALWRISHDDGDEEDLEEQELRLAID,-1.69
22,HMVKLQATPSQRKTLDELYVQLKKLEPTAKEDLSLLRRLENSHLVSKQEAQGLISKAIGRVGALAVEQQP,0.0541
23,HMVKNTIHVDLKGEVNKPGVYEVEEGTIVNDLITLANGFTKNAYQDNINLSKKLTDEMVIVVSKKGS,-0.461
24,HMVKNVVIPDVSNKAPVDASNQLTDLGFEVVTEYKYIASDTIEEGKVVKTSPEIGSKRKYGQKITLYISSG,0.205
25,HMVKRAYGEYVNVKLTDADLSKLKADFPADWQERIERLSTYMASTGKTYKNHLATIRNWARRDAERVSA,-0.292

row,Sequence,soluble fraction (log2)
1,HMVKVSVYPNPAVDRITISGEVKAYAVYDATGKVVMKDTDYRGGAIGVSHLPAGIYIVRTDAGAVTVNK,-0.246
2,HMVLSVRDRMVQILDQVKTGEYKRIEDFFSADEGRTGFVVSFVAILELVKGGLLTITQSKNLAPIYVRLPN,-0.108
3,HMVLVEEYDTKDSASTFKIGYYARYNTKYGTPSKVGSYADNQRSGIWTFYTDSLKTYFKYNYSTGLIL,-0.572
4,HMVLVGERRQKILEVVSSGKAVTVEELSRILHVSPSTVRRDLRFLESRGLLYRTHGGAMPPV,-0.0726
5,HMVLVKFEWTPPDARILVDDHPVEARDKEMELPEGTHHVQALAPRGSGYESTVTDIEVRQGMDPVRIAL,0.115
6,HMVMRHTVEHDAELLAVLRLMYPASSSTKLRKMLTQGRVLVNDDVVHRAKHGVASGDTVDVIVRQRAE,0.0827
7,HMVNFKLIGNKIAEARKKVNISQAQLAQRLFISSQAVGKWERGESMPDIITFNRLAEILGVDLNYFSE,0.266
8,HMVNPDAPAPLYIVNGKETDKNIALAIKPEDVQDVRIIKNTVALQVYGEKGKNGVVIINTKPGV,0.0604
9,HMVNSADLAAKPFIDLLVSTRQQLREAKQYDLADTIRDELTNHGITIEDKPQGSEWQYEFNPNS,-0.499
10,HMVNTYILNNKEYPIEIIRKNNKNTYLRVKEGKIIVTTNYLTSSFTINKLIKDNTSFINKALLKEN,-0.0629
11,HMVNYKEILRLAHEGYSQRQIATNIGNSRNTVSEVLDAAKAANIAWPPEETVTNEQLGAILFPNRH,≥ 0.43
12,HMVNYKEILRLSAEGNSQRQIAAGSGNSRNTVIEVLEAARARGITWPLDEPVTNEQLEAILFPNRY,≥ 0.43
13,HMVPEETKQFINQLNHGSLSIRMNAANNLEKLGLLAIPEIEAALPKAHGEAAFRLPRLLHALVLRETEYF,0.0598
14,HMVPEMIRDVISKSIRDMGVLPDHMQINERIALIQSLKKQQILGIKGAVAETARQLGISVPTVYRYMKKG,-0.125
15,HMVPFISVTPTSLSFAKGGESKTVDIEASGAFSVGKVPTGFNLEVVNGRITITADANTGAARNGSVEFILA,0.00872
16,HMVPHTTSMVAEVQERLFNLNYDPGPINGRMDQATITAITRFQRNFSLPQTGQIDEGFLNTLRDARL,0.063
17,HMVPLGDLSKNERRAMELAATNGNVTTRALADDAQVTKRTASTTLRRLAKRGLLEWIGKGPSDPGQFYRIP,-0.119
18,HMVPLTPGELVGTEVRVLWWKEGRGEVIASSRGHQLTLEAHSEDPLRAGSTAVVLEAADDVLVVTS,-1.18
19,HMVPPELEFLQSLMKIEDISELTAAIENNRDAVTDDFKEMLETVIENISGAPDTDPKLLERLKTIRTVLA,-0.631
20,HMVPPVVRTIYGAGGKMTATFLFPGGYEVDAASGAELPGKYRVESISLDQVVLTDKDGNRVPVGFSSVAPT,-0.161
21,HMVPQEVLPITLIIDGKLIEENLLYAKMTEQVLIQQLDINNIKSIKQILFAGLDSFGNFFYQEKQN,-1.91
22,HMVPTATVGENTSTLPVRQLPGGPVLVVLVRGDIVLPLPGHAFQNGDVWREISTVNGVIGWVPDEFLDY,-1.3
23,HMVPTVSVDRDDTLRFEGRPVDWDVLKRELGAVAGIDELKIYADAKVSALTVSKIMKSASEAGVLQFILVT,-0.334
24,HMVQARDQNIEEGRQLVLRELDRLDLVNESLTDVAADMNMKSVEDMYAAIGAGDLRVGQVVHAVLKRAD,-0.218
25,HMVQDSEWWRNYQSAHDYFIQNGHLNVLRSDKKNTKLYNWIVGQRSSRWNSQGRINLLNSIGFIWDT,-1.65

row,Sequence,soluble fraction (log2)
1,HMVQISNTDDLYPIVQRIVDANPQSVEDYKNGKAKALGFLVGQMMKETKGKANPSMVNDLIIKAIEE,0.0143
2,HMVQIVINKEVQTTSQTILRENAGTSSRNIGYVDPNVKLRATLDRNSFYFIPEKKGWIMKSRVKLIEDLS,0.0552
3,HMVQMNMLELQEEMQRDRSWIIKHLFQDEYFRRKIAKFSQFPINDSGKYLFHRKSMLKFLNDYAEEIVER,-1.46
4,HMVQPSAAVRAHPVGAFVEQRQGLSDDQILALQKKWNEGIYARIQGTRWFLFSKDTPAVTSLLLVPDLP,-0.0222
5,HMVQVHEWTNKAGRTIKAKFVRGDAQSVTIFLGGRNFVLKIADLSEESQALARKLSAPPPPP,0.0306
6,HMVQVPSLVGISEIEAKTLLTQAGFFVKIVEVFDANQPVGIVLAQAPSAGESRIIGSPVTITVNKAQ,-0.6
7,HMVQVRQPAGAGDLFAKGRLHLSTGTIHTVKPLEVDLPKGRLTVVTGVSGSGKTTLILESLLPALAAAAA,0.307
8,HMVRSLESESVYDRQRAYEIAYQLRTEERPYSFIATQLNKAGLRPQKAARYEWYSVQELLRSA,≥ 0.43
9,HMVSDISTQYQKIINEALDKQPEVKLADIVTMIKEQTSNKVQNGIVENVAKQMNGIEIIKIGQAKGVRRTT,0.152
10,HMVSDTGAIEAIVAQVLADNPKLVEGYLATPEDKRGKAIGPFIGLTRKAAAGVNPQVVMDVLKKKLSEL,-0.733
11,HMVSEASELTDTINKIGSLAQALVGANKLSKTDLVGIIKKYHTSANYNSITDIGVAKNILAELEAKN,-0.264
12,HMVSFSIDEALVSAVKGPRSANVMSIQRQFLVRLSVERDGRVTITGANSKSVQQAREAVEAAVEEAKLHP,0.238
13,HMVSGVMAQQAIAVLVQQEDKHAPLSDQALAERLQVQGIDISRRTVAKYRQLLQIPSAATRR,-0.0405
14,HMVSIGSQVAKRRRELRLTQQNLAEKMGVSFQAISSWEREEFLPDINKLQKLAAILNTKISYLLEE,-0.538
15,HMVSINETAFIQIKNSSATEIKEKITALKLDELKNVTITADIRTNKLIVVGPKATINKIQELVIELDTES,-0.49
16,HMVSKTEAMAVFIADKLQEGMVPANEILELYKGMQLSDRTIRNAKKQLGIVSIRKDGQWYWSL,-0.997
17,HMVSLPSPLAGKVVSLTVQAGQEVKEGDEIMVLEAMKMNTQVHAPSSGRILALRVQPGDQVEEGQTLVTMG,0.0584
18,HMVSLSNQVFEKIEYDILSGKYKIGEIISEKRLSSELGVSRTPIREALGRLSEEGLVGDSPSGTVVLGI,-0.287
19,HMVSRVTTPGVVGKTWQETKQILKQADLTVGSLTRDGKDVTPADGDLVTAQNPSAGQAIVRGSSVDLTFDK,0.0198
20,HMVSSYTMAIQINGKLRATHDFSVDTSQEDIKKIIINLPAIQKYINGVEIKKFIIVPQKIVNIV,-0.0406
21,HMVSTEDEISDKLLLDFALEKLSENEKQIVKLRYYNSLTQSKTAEILNMTQVQVSRSEKKILAKLRGII,0.0807
22,HMVSTGIMVVDGRGSVLQHNEAALRQLGVEVLTFESQVKEKLASEDFSVRETTAMLNGKKVRIIAFSDIR,-1.66
23,HMVSVEELLSSLDPNEATVLKLLAERSSGVDELMERSGLDFSALSEAITNLELFGYIAREMDGVYSFS,-1.78
24,HMVSVPDIGEKLPDFTGTPKRLLTPLLNKNDVNIIIKGDGWVVSQKPPAGTPVTKGMTIEFTL,-0.0317
25,HMVTDSGEIEKLVDEVIDNNPDQVQQFREGKQQVLSYLVGQAMKLSRGKANPNQVNQFLRDKL,0.152
